Results reported in article PMC9482650, “Quantitative fragmentomics allow affinity mapping of interactomes” (Nature Communications, 2022).

Biological target: T1, DLG3_1, Q92796
T1 sequence (Q92796 125-227, limits assumed, looked up): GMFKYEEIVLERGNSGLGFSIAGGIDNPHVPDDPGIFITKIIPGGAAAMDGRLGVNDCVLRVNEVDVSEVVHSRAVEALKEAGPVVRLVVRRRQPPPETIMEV
Assay: holdup assay
Set-up: key: below the threshold = too weak to quantify, mostly under pKd 3.1 to 4
Settings: plain residues with an end cap or a label only (N-terminal biotin on a linker: ado-ado)

Row | Binder | pKd
1 | AHGSTRDQSI [KCNB1, Q14721] | 3.68
2 | EAVTVESTSL [SLC22A11, Q9NSA0] | below the threshold

Biological target: GRASP, Q7Z6J2
Assay: holdup assay
Set-up: key: below the threshold = too weak to quantify, mostly under pKd 3.1 to 4
Settings: plain residues with an end cap or a label only (N-terminal biotin on a linker: ado-ado)

Sequence of GRASP, Q7Z6J2 (Q7Z6J2 96-193): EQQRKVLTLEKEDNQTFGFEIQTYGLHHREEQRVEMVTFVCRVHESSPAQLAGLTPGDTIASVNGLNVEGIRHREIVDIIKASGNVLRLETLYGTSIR

Row | Binder | pKd
3 | AHGSTRDQSI [KCNB1, Q14721] | below the threshold
4 | EAVTVESTSL [SLC22A11, Q9NSA0] | 5.36

Biological target: T2, DFNB31_3, Q9P202
T2 sequence (Q9P202 811-907, limits assumed, looked up): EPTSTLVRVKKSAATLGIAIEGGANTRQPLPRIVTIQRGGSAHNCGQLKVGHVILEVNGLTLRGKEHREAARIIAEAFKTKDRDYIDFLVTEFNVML
Assay: holdup assay
Set-up: key: below the threshold = too weak to quantify, mostly under pKd 3.1 to 4
Settings: plain residues with an end cap or a label only (N-terminal biotin on a linker: ado-ado)

Row | Binder | pKd
5 | AHGSTRDQSI [KCNB1, Q14721] | 3.77
6 | EAVTVESTSL [SLC22A11, Q9NSA0] | below the threshold

Biological target: CASK, O14936
Assay: holdup assay
Set-up: key: below the threshold = too weak to quantify, mostly under pKd 3.1 to 4
Settings: plain residues with an end cap or a label only (N-terminal biotin on a linker: ado-ado)

Sequence of CASK, O14936 (O14936 487-570): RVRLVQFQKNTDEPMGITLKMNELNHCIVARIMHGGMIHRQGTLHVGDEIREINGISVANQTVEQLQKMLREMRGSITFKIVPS

Row | Binder | pKd
7 | AHGSTRDQSI [KCNB1, Q14721] | below the threshold
8 | EAVTVESTSL [SLC22A11, Q9NSA0] | below the threshold

Biological target: DLG1_1, Q12959
Assay: holdup assay
Set-up: key: below the threshold = too weak to quantify, mostly under pKd 3.1 to 4
Settings: plain residues with an end cap or a label only (N-terminal biotin on a linker: ado-ado)

Row | Binder | pKd
9 | AHGSTRDQSI [KCNB1, Q14721] | below the threshold
10 | EAVTVESTSL [SLC22A11, Q9NSA0] | below the threshold

Biological target: T3, SNTA1, Q13424
T3 sequence (Q13424 82-180, limits assumed, looked up): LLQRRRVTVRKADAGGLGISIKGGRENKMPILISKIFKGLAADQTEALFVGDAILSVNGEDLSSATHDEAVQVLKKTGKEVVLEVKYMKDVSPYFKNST
Assay: holdup assay
Set-up: key: below the threshold = too weak to quantify, mostly under pKd 3.1 to 4
Settings: plain residues with an end cap or a label only (N-terminal biotin on a linker: ado-ado)

Row | Binder | pKd
11 | AHGSTRDQSI [KCNB1, Q14721] | below the threshold
12 | EAVTVESTSL [SLC22A11, Q9NSA0] | 3.65

Biological target: IL16_3, Q14005
Assay: holdup assay
Set-up: key: below the threshold = too weak to quantify, mostly under pKd 3.1 to 4
Settings: plain residues with an end cap or a label only (N-terminal biotin on a linker: ado-ado)

Sequence of IL16_3, Q14005 (Q14005 1107-1207): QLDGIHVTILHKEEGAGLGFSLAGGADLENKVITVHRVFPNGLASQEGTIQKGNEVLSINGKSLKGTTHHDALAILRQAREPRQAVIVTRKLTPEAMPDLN

Row | Binder | pKd
13 | AHGSTRDQSI [KCNB1, Q14721] | below the threshold
14 | EAVTVESTSL [SLC22A11, Q9NSA0] | below the threshold

Biological target: T4, PDZD2_2, O15018
T4 sequence (O15018 329-429, limits assumed, looked up): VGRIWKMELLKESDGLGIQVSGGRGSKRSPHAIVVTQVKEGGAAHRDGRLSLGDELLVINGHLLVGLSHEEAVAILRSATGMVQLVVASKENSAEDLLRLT
Assay: holdup assay
Set-up: key: below the threshold = too weak to quantify, mostly under pKd 3.1 to 4
Settings: plain residues with an end cap or a label only (N-terminal biotin on a linker: ado-ado)

Row | Binder | pKd
15 | AHGSTRDQSI [KCNB1, Q14721] | below the threshold
16 | EAVTVESTSL [SLC22A11, Q9NSA0] | 4.4

Biological target: DLG1_2, Q12959
Assay: holdup assay
Set-up: key: below the threshold = too weak to quantify, mostly under pKd 3.1 to 4
Settings: plain residues with an end cap or a label only (N-terminal biotin on a linker: ado-ado)

Row | Binder | pKd
17 | AHGSTRDQSI [KCNB1, Q14721] | below the threshold
18 | EAVTVESTSL [SLC22A11, Q9NSA0] | below the threshold

Biological target: MAGI2_2, Q86UL8
Assay: holdup assay
Set-up: key: below the threshold = too weak to quantify, mostly under pKd 3.1 to 4
Settings: plain residues with an end cap or a label only (N-terminal biotin on a linker: ado-ado)

Sequence of MAGI2_2, Q86UL8 (Q86UL8 410-522): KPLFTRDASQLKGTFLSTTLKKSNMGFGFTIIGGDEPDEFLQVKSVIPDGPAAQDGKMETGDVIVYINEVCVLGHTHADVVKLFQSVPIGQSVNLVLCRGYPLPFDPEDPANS

Row | Binder | pKd
19 | AHGSTRDQSI [KCNB1, Q14721] | below the threshold
20 | EAVTVESTSL [SLC22A11, Q9NSA0] | below the threshold

Biological target: T5, NHERF3_4, Q5T2W1
T5 sequence (Q5T2W1 373-468, limits assumed, looked up): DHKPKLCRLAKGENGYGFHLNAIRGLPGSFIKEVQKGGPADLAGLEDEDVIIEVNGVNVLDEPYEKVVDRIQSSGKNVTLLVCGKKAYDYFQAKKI
Assay: holdup assay
Set-up: key: below the threshold = too weak to quantify, mostly under pKd 3.1 to 4
Settings: plain residues with an end cap or a label only (N-terminal biotin on a linker: ado-ado)

Row | Binder | pKd
21 | AHGSTRDQSI [KCNB1, Q14721] | below the threshold
22 | EAVTVESTSL [SLC22A11, Q9NSA0] | 4.92

Biological target: T6, MPP6, Q9NZW5
T6 sequence (Q9NZW5 125-219, limits assumed, looked up): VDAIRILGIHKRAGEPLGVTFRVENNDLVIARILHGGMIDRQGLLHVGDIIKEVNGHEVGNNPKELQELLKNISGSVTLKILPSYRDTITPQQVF
Assay: holdup assay
Set-up: key: below the threshold = too weak to quantify, mostly under pKd 3.1 to 4
Settings: plain residues with an end cap or a label only (N-terminal biotin on a linker: ado-ado)

Row | Binder | pKd
23 | AHGSTRDQSI [KCNB1, Q14721] | below the threshold
24 | EAVTVESTSL [SLC22A11, Q9NSA0] | 3.95

Biological target: NHERF2_2, Q15599
Assay: holdup assay
Set-up: key: below the threshold = too weak to quantify, mostly under pKd 3.1 to 4
Settings: plain residues with an end cap or a label only (N-terminal biotin on a linker: ado-ado)

Sequence of NHERF2_2, Q15599 (Q15599 142-238): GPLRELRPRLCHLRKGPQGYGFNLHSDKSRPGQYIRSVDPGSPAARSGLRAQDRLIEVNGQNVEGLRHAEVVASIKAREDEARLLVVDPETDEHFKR

Row | Binder | pKd
25 | AHGSTRDQSI [KCNB1, Q14721] | below the threshold
26 | EAVTVESTSL [SLC22A11, Q9NSA0] | 5.45

Biological target: FRMPD3, Q5JV73
Assay: holdup assay
Set-up: key: below the threshold = too weak to quantify, mostly under pKd 3.1 to 4
Settings: plain residues with an end cap or a label only (N-terminal biotin on a linker: ado-ado)

Sequence of FRMPD3, Q5JV73 (Q5JV73 12-100): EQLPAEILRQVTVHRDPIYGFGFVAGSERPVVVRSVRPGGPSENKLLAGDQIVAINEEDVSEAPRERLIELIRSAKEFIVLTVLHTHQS

Row | Binder | pKd
27 | AHGSTRDQSI [KCNB1, Q14721] | below the threshold
28 | EAVTVESTSL [SLC22A11, Q9NSA0] | below the threshold

Biological target: FRMPD2_3, Q68DX3
Assay: holdup assay
Set-up: key: below the threshold = too weak to quantify, mostly under pKd 3.1 to 4
Settings: plain residues with an end cap or a label only (N-terminal biotin on a linker: ado-ado)

Sequence of FRMPD2_3, Q68DX3 (Q68DX3 1073-1166): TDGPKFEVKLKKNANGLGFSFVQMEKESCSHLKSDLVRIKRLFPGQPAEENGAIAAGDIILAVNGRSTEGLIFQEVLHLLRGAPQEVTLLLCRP

Row | Binder | pKd
29 | AHGSTRDQSI [KCNB1, Q14721] | below the threshold
30 | EAVTVESTSL [SLC22A11, Q9NSA0] | below the threshold

Biological target: GRIP2_6, Q9C0E4
Assay: holdup assay
Set-up: key: below the threshold = too weak to quantify, mostly under pKd 3.1 to 4
Settings: plain residues with an end cap or a label only (N-terminal biotin on a linker: ado-ado)

Sequence of GRIP2_6, Q9C0E4 (Q9C0E4 648-740): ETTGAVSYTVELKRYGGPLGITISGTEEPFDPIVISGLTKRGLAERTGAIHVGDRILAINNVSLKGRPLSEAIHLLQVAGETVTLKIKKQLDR

Row | Binder | pKd
31 | AHGSTRDQSI [KCNB1, Q14721] | below the threshold
32 | EAVTVESTSL [SLC22A11, Q9NSA0] | below the threshold

Biological target: GOPC, Q9HD26
Assay: holdup assay
Set-up: key: below the threshold = too weak to quantify, mostly under pKd 3.1 to 4
Settings: plain residues with an end cap or a label only (N-terminal biotin on a linker: ado-ado)

Row | Binder | pKd
33 | AHGSTRDQSI [KCNB1, Q14721] | below the threshold
34 | EAVTVESTSL [SLC22A11, Q9NSA0] | 4.18

Biological target: T7, SIPA1L2, Q9P2F8
T7 sequence (Q9P2F8 945-1036, limits assumed, looked up): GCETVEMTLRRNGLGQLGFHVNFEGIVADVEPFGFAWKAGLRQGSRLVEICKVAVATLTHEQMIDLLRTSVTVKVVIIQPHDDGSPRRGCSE
Assay: holdup assay
Set-up: key: below the threshold = too weak to quantify, mostly under pKd 3.1 to 4
Settings: plain residues with an end cap or a label only (N-terminal biotin on a linker: ado-ado)

Row | Binder | pKd
35 | AHGSTRDQSI [KCNB1, Q14721] | 3.58
36 | EAVTVESTSL [SLC22A11, Q9NSA0] | below the threshold

Biological target: MAST1, Q9Y2H9
Assay: holdup assay
Set-up: key: below the threshold = too weak to quantify, mostly under pKd 3.1 to 4
Settings: plain residues with an end cap or a label only (N-terminal biotin on a linker: ado-ado)

Sequence of MAST1, Q9Y2H9 (Q9Y2H9 962-1065): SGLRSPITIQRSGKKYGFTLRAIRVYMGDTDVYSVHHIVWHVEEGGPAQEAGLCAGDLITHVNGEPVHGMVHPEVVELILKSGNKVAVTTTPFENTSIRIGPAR

Row | Binder | pKd
37 | AHGSTRDQSI [KCNB1, Q14721] | 3.69
38 | EAVTVESTSL [SLC22A11, Q9NSA0] | 5.07

Biological target: T8, LIN7A, O14910
T8 sequence (O14910 103-200, limits assumed, looked up): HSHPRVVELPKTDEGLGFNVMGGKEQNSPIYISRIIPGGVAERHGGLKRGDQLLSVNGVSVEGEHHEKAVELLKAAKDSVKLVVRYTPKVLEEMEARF
Assay: holdup assay
Set-up: key: below the threshold = too weak to quantify, mostly under pKd 3.1 to 4
Settings: plain residues with an end cap or a label only (N-terminal biotin on a linker: ado-ado)

Row | Binder | pKd
39 | AHGSTRDQSI [KCNB1, Q14721] | below the threshold
40 | EAVTVESTSL [SLC22A11, Q9NSA0] | below the threshold

Biological target: T9, MPDZ_5, O75970
T9 sequence (O75970 695-796, limits assumed, looked up): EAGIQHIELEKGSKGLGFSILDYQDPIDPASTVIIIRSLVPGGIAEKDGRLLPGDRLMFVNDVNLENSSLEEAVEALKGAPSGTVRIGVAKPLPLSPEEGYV
Assay: holdup assay
Set-up: key: below the threshold = too weak to quantify, mostly under pKd 3.1 to 4
Settings: plain residues with an end cap or a label only (N-terminal biotin on a linker: ado-ado)

Row | Binder | pKd
41 | AHGSTRDQSI [KCNB1, Q14721] | below the threshold
42 | EAVTVESTSL [SLC22A11, Q9NSA0] | below the threshold

Biological target: DLG1_3, Q12959
Assay: holdup assay
Set-up: key: below the threshold = too weak to quantify, mostly under pKd 3.1 to 4
Settings: plain residues with an end cap or a label only (N-terminal biotin on a linker: ado-ado)

Row | Binder | pKd
43 | AHGSTRDQSI [KCNB1, Q14721] | 3.93
44 | EAVTVESTSL [SLC22A11, Q9NSA0] | below the threshold

Biological target: GRID2IP_2, A4D2P6
Assay: holdup assay
Set-up: key: below the threshold = too weak to quantify, mostly under pKd 3.1 to 4
Settings: plain residues with an end cap or a label only (N-terminal biotin on a linker: ado-ado)

Sequence of GRID2IP_2, A4D2P6 (A4D2P6 272-370): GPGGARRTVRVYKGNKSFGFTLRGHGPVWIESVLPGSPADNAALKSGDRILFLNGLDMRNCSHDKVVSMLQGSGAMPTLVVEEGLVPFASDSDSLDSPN

Row | Binder | pKd
45 | AHGSTRDQSI [KCNB1, Q14721] | below the threshold
46 | EAVTVESTSL [SLC22A11, Q9NSA0] | 5.32

Biological target: GRIP2_5, Q9C0E4
Assay: holdup assay
Set-up: key: below the threshold = too weak to quantify, mostly under pKd 3.1 to 4
Settings: plain residues with an end cap or a label only (N-terminal biotin on a linker: ado-ado)

Sequence of GRIP2_5, Q9C0E4 (Q9C0E4 544-642): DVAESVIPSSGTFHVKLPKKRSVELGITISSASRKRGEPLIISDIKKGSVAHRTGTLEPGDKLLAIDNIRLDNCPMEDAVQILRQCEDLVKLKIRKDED

Row | Binder | pKd
47 | AHGSTRDQSI [KCNB1, Q14721] | below the threshold
48 | EAVTVESTSL [SLC22A11, Q9NSA0] | below the threshold

Biological target: HTRA2, O43464
Assay: holdup assay
Set-up: key: below the threshold = too weak to quantify, mostly under pKd 3.1 to 4
Settings: plain residues with an end cap or a label only (N-terminal biotin on a linker: ado-ado)

Sequence of HTRA2, O43464 (O43464 355-458): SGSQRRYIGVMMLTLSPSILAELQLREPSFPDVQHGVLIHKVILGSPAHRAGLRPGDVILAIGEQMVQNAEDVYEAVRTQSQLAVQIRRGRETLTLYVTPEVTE

Row | Binder | pKd
49 | AHGSTRDQSI [KCNB1, Q14721] | below the threshold
50 | EAVTVESTSL [SLC22A11, Q9NSA0] | below the threshold

Biological target: T10, PCLO, Q9Y6V0
T10 sequence (Q9Y6V0 4491-4600, limits assumed, looked up): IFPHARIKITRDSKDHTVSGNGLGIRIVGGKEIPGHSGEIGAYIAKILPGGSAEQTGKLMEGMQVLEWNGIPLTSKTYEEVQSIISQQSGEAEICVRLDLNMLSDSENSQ
Assay: holdup assay
Set-up: key: below the threshold = too weak to quantify, mostly under pKd 3.1 to 4
Settings: plain residues with an end cap or a label only (N-terminal biotin on a linker: ado-ado)

Row | Binder | pKd
51 | AHGSTRDQSI [KCNB1, Q14721] | below the threshold
52 | EAVTVESTSL [SLC22A11, Q9NSA0] | below the threshold

Biological target: T11, NHERF3_1, Q5T2W1
T11 sequence (Q5T2W1 4-100, limits assumed, looked up): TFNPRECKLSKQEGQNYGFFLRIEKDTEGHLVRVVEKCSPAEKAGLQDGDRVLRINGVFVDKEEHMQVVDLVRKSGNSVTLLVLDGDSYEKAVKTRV
Assay: holdup assay
Set-up: key: below the threshold = too weak to quantify, mostly under pKd 3.1 to 4
Settings: plain residues with an end cap or a label only (N-terminal biotin on a linker: ado-ado)

Row | Binder | pKd
53 | AHGSTRDQSI [KCNB1, Q14721] | below the threshold
54 | EAVTVESTSL [SLC22A11, Q9NSA0] | 6.1
